15 molecules from patent publication US20230312741A1 (published 2023) can be followed below.

First the molecules themselves.
T1: human CD73 expressed on the cell surface (human, UniProt P21589 27-549)
T1 sequence: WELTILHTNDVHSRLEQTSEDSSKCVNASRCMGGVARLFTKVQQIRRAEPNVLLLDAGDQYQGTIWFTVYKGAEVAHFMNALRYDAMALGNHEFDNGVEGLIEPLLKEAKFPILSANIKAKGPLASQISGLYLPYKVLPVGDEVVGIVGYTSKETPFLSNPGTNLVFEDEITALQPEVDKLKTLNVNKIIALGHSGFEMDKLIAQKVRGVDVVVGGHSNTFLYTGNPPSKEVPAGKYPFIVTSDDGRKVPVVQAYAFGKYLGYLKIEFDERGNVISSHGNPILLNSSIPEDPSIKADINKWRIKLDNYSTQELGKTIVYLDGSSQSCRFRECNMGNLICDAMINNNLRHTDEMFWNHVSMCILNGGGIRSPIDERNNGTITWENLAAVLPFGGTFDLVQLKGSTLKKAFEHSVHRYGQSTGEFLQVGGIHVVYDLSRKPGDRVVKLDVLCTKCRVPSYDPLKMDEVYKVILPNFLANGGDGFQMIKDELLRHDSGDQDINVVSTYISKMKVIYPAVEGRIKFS

T2: human CD73 antigen (human, UniProt P21589 27-547)
T2 construct: also called Biotinylated Human CD73
T2 sequence (looked up): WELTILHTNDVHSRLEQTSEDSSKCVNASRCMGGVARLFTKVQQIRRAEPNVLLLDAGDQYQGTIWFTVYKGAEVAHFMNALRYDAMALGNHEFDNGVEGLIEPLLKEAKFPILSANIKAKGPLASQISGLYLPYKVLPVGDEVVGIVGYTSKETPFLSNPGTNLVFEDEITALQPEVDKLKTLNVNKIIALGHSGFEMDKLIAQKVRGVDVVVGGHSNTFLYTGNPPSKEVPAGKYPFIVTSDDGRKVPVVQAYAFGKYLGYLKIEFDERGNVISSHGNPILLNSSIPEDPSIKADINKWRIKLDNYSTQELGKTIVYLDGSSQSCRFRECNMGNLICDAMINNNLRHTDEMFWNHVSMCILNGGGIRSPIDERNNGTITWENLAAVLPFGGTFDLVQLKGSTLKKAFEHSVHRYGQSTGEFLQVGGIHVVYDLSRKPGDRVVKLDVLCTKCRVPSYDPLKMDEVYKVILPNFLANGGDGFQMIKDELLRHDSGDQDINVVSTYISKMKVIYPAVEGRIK

T3: cynomolgus monkey CD73 antigen (cynomolgus monkey, UniProt A0A2K5V5U7 27-547)
T3 construct: also called Biotinylated cynomolgus monkey CD73
T3 sequence: T2 sequence (looked up) with M199T, T350A, V466I

B1: Oleclumab (antibody, V domains shown)
VH: EVQLLESGGGLVQPGGSLRLSCAASGFTFSSYAYSWVRQAPGKGLEWVSAISGSGGRTYYADSVKGRFTISRDNSKNTLYLQMNSLRAEDTAVYYCARLGYGRVDEWGRGTLVTVSS
VL: QSVLTQPPSASGTPGQRVTISCSGSLSNIGRNPVNWYQQLPGTAPKLLIYLDNLRLSGVPDRFSGSKSGTSASLAISGLQSEDEADYYCATWDDSHPGWTFGGGTKLTVL
B2: scfv fragment of ADI-37513 (scFv, V domains shown)
VH: EVQLLESGGGVVQPGRSLRLSCAASGFTFNFYGMHWVRQAPGKGLEWVAVINDEGINKYYADSVKGRFTISRDNSKNTLYLQMNSLRAEDTAVYYCARGGARYPIAFDIWGQGTMVTVSS
VL: DIQLTQSPSSVSASVGDRVTITCRASQDISSWLAWYQQKPGKAPKLLIYAASSLQSGVPSRFSGSGSGTDFTLTISSLQPEDFATYYCQQANDFPITFGGGTKVEIK
B3: scfv fragment of ADI-37522 (scFv, V domains shown)
VH: B2 VH with E1Q, L5V, N30S, F31H, N52S, I56S, G100W, A101L
VL: B2 VL
B4: scfv fragment of ADI-37532 (scFv, V domains shown)
VH: QVQLVESGGGVVQPGRSLRLSCAASGFTFSSYSMHWVRQAPGKGLEWVAHIVEGSDKYYADSVKGRFTISRDNSKNTLYLQMNSLRAEDTAVYYCARSRYDWSLFDIWGQGTMVTVSS
VL: EIVLTQSPGTLSLSPGERATLSCGASQSVSSSYLAWYQQKPGQAPRLLIYGASSRATGIPDRFSGSGSGTDFTLTISRLEPEDFAVYYCQQYVLYPFTFGGGTKVEIK
B5: scfv fragment of ADI-37497 (scFv, V domains shown)
VH: EVQLVESGGGLVQPGGSLRLSCAASGFTFDDYFMHWVRQAPGKGLEWVSGISWSSGPIDYADSVKGRFTISRDNAKNSLYLQMNSLRAEDTAVYYCAKGKYLPTGSVDYWGQGTLVTVSS
VL: EIVLTQSPGTLSLSPGERATLSCRASQSVSSSYLAWYQQKPGQAPRLLIYGASSRATGIPDRFSGSGSGTDFTLTISRLEPEDFAVYYCQQYYDYPPITFGGGTKVEIK
B6: scfv fragment of ADI-37496 (scFv, V domains shown)
VH: B5 VH with G16R, Y32F, F33Y, G56T, P57S
VL: B5 VL
B7: scfv fragment of ADI-37542 (scFv, V domains shown)
VH: QVQLQESGPGLVKPSETLSLTCAVSGYSISEGYYWGWIRQPPGKGLEWIGSIYHTGFTYYNPSLKSRVTISVDTSKNQFSLKLSSVTAADTAVYYCARASIYTPPPEYFQHWGQGTLVTVSS
VL: DIQMTQSPSTLSASVGDRVTITCRASQSISSWLAWYQQKPGKAPKLLIYDASSLESGVPSRFSGSGSGTEFTLTISSLQPDDFATYYCQQSRIYSTFGGGTKVEIK
B8: scfv fragment of ADI-37543 (scFv, V domains shown)
VH: B7 VH with E31S, G36A, Y53F, T55S, Y59F
VL: B7 VL
B9: scfv fragment of ADI-37507 (scFv, V domains shown)
VH: EVQLLESGGGLVQPGGSLRLSCAASGFTFLNYAMAWVRQAPGKGLEWVSAISGRATSTYYADSVKGRFTISRDNSKNTLYLQMNSLRAEDTAVYYCARGGPYGSGSYWDTFDYWGQGTLVTVSS
VL: EIVMTQSPATLSVSPGERATLSCRASQSVSSNLAWYQQKPGQAPRLLIYGASTRATGIPARFSGSGSGTEFTLTISSLQSEDFAVYYCQQYTNHYTFGGGTKVEIK
B10: ADI-34101 (antibody, human IgG4 S228P, kappa, F234A L235A, V domains shown)
VH: QVQLVESGGGVVQPGRSLRLSCAASGFTFSSYGMHWVRQAPGKGLEWVAVISYEGSNKYYADSVKGRFTISRDNSKNTLYLQMNSLRAEDTAVYYCARSRYDWSLFDIWGQGTMVTVSS
VL: EIVLTQSPGTLSLSPGERATLSCRASQSVSSSYLAWYQQKPGQAPRLLIYGASSRATGIPDRFSGSGSGTDFTLTISRLEPEDFAVYYCQQYVLYPFTFGGGTKVEIKR
notes: Parental antibody
B11: ADI-34074 (antibody, human IgG4 S228P, kappa, F234A L235A, V domains shown)
VH: B5 VH with G16R, F33A, P57S, D59G
VL: EIVLTQSPGTLSLSPGERATLSCRASQSVSSSYLAWYQQKPGQAPRLLIYGASSRATGIPDRFSGSGSGTDFTLTISRLEPEDFAVYYCQQYYDYPPITFGGGTKVEIKR
notes: Parental antibody; also called AD-34074
B12: ADI-34104 (antibody, human IgG4 S228P, kappa, F234A L235A, V domains shown)
VH: B7 VH with E31S, T55S, F57S
VL: DIQMTQSPSTLSASVGDRVTITCRASQSISSWLAWYQQKPGKAPKLLIYDASSLESGVPSRFSGSGSGTEFTLTISSLQPDDFATYYCQQSRIYSTFGGGTKVEIKR
notes: Parental antibody
B13: ADI-34086 (antibody, human IgG4 S228P, kappa, F234A L235A, V domains shown)
VH: B9 VH with L30S, A35S, R54S, A55G, T56G
VL: EIVMTQSPATLSVSPGERATLSCRASQSVSSNLAWYQQKPGQAPRLLIYGASTRATGIPARFSGSGSGTEFTLTISSLQSEDFAVYYCQQYTNHYTFGGGTKVEIKR
notes: Parental antibody
B14: ADI-34071 (antibody, human IgG4 S228P, kappa, F234A L235A, V domains shown)
VH: EVQLVESGGGLVQPGRSLRLSCAASGFTFDDYAMHWVRQAPGKGLEWVSGISWSSGSIGYADSVKGRFTISRDNAKNSLYLQMNSLRAEDTAVYYCAKDRRYGLTYGMDVWGQGTTVTVSS
VL: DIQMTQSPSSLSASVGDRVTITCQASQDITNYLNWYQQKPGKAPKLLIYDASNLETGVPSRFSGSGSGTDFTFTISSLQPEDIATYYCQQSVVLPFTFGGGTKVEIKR
notes: Parental antibody from the yeast library
B15: ADI-34095 (antibody, human IgG4 S228P, kappa, F234A L235A, V domains shown)
VH: B2 VH with E1Q, L5V, N30S, F31S, N52S, D53Y, I56S
VL: DIQLTQSPSSVSASVGDRVTITCRASQDISSWLAWYQQKPGKAPKLLIYAASSLQSGVPSRFSGSGSGTDFTLTISSLQPEDFATYYCQQANDFPITFGGGTKVEIKR

Positions count from the first letter of the chain named.

One test addresses T1, human CD73 expressed on the cell surface. Nature of the test: cell-based or functional assay.
Turning to B1, the “IC50 for inhibiting the enzymatic activity of CD73 (Calu-6 cells)” value amounted to 0.177 µg/mL.

In another test the target is T2, human CD73 antigen. As to the kind of experiment: ForteBio BLI; antigen on sensor, 100 nM scFv; monovalent; 1:1 model. For orientation: In BLI a coated tip is dipped into the sample, and binding shifts an interference pattern.
Protocol: (§1) Human or cynomolgus monkey CD73 antigen protein was loaded on-line to the AHQ sensor (ForteBio) for ForteBio affinity measurement. […] Kinetic analysis was performed by using a 1:1 binding model.
The molecule B2 returned a Kd of 2.84 nM.

For the molecule B3, the Kd was 2.43 nM.

Turning to B4, the Kd came out at 0.581 nM.

B5 came in with a Kd of 10.2 nM.

In the case of B6, the Kd came out at 13.8 nM.

With B7, the Kd stood at 6.04 nM.

The molecule B8 had a Kd of 3.85 nM.

B9 came in with a Kd of 9.21 nM.

The target of another test is T3, cynomolgus monkey CD73 antigen. The test is described as above.
Protocol: as §1
B2 yielded a Kd of 2.26 nM.

As to B3, the Kd was found to be 2.93 nM.

In the case of B4, the Kd amounted to 0.53 nM.

B5 registered a Kd of 8.82 nM.

With B6, the Kd stood at 13.7 nM.

Turning to B7, the Kd was determined as 5.47 nM.

B8 displayed a Kd of 2.99 nM.

In turn, B9 showed a Kd of 23.7 nM.

The target in a further test is T2, human CD73 antigen. As to the kind of experiment: ForteBio BLI; IgG on AHQ sensor, 100 nM antigen; bivalent; 1:1 model.
Protocol: (§2) Briefly, the sensor was equilibrated off-line in assay buffer for 30 min, then on-line detection was carried out for 60 sec to establish a baseline. The purified antibody obtained as described above was loaded on-line to the AHQ sensor (ForteBio) for ForteBio affinity determination. The sensor loaded with the antibody was then exposed to 100 nM of human or cynomolgus monkey antigen for 5 minutes, after which the sensor was transferred to assay buffer for dissociation for 5 minutes to determine the dissociation rate. Kinetic analysis was performed by using a 1:1 binding model.
The molecule B10 came in with a Kd of 1.07 nM.

In the case of B1, the Kd amounted to 0.948 nM.

B11: the Kd was 2.12 nM.

The molecule B12 had a Kd of 0.847 nM.

B13 had a Kd of 1.23 nM.

B14 showed a Kd of 0.892 nM.

In another test the target is T3, cynomolgus monkey CD73 antigen. The test is described as above.
Protocol: as §2
B10 had a Kd of 1.57 nM.

Take B1: the Kd came to 0.96 nM.

B11 yielded a Kd of 3.13 nM.

As for B13, the Kd is 1.9 nM.

Turning to B14, the Kd amounted to 1.34 nM.

In another test the target is T1, human CD73 expressed on the cell surface. Nature of the test: cell-based or functional assay. The source holds these as a separate data set.
In the case of B15, the “CD73 enzymatic activity assay IC50 (Calu-6 cells, CellTiter-Glo)” value (shortened to “CD73 enzymatic activity assay IC50”) worked out at 0.279 µg/mL.

Consider B10, for which the “CD73 enzymatic activity assay IC50” value was 0.153 µg/mL.

Consider B1, for which the “CD73 enzymatic activity assay IC50” value was found to be 0.167 µg/mL.

Regarding B11, the “CD73 enzymatic activity assay IC50” value amounted to 0.476 µg/mL.

Regarding B12, the “CD73 enzymatic activity assay IC50” value was determined as 0.142 µg/mL.

With B13, the “CD73 enzymatic activity assay IC50” value came out at 0.089 µg/mL.

For the molecule B14, the “CD73 enzymatic activity assay IC50” value stood at 0.171 µg/mL.
